Measured values from publication PMC9177699, “Dynamic interplay between the periplasmic chaperone SurA and the BAM complex in outer membrane protein folding” (Communications Biology, 2022).
Values belong to the binder of their own block, whether it stands above or below them.

Key:
BAM complex (BamABCDE) = BAM complex (BamABCDE) (E. coli, UniProt P0A940 21-810; P77774 20-392; P0A903 25-344; P0AC02 20-245; P0A937 20-113); assay: MST; 400 nM Alexa Fluor 488-labelled SurA variant, BAM complex titrated 25 µM-1 nM in proteoliposomes of E. coli polar lipid extract, 150 mM NaCl, 20 mM Tris-HCl, pH 8.0, 25 °C; BAM concentration taken as 50 % of the total for fitting; 1:1 quadratic binding model; details: both partners purified
[1] = molecular target: T1, β-barrel assembly machinery (BAM) complex, BamABCDE (E. coli, UniProt P0A940 21-810; P77774 20-392; P0A903 25-344; P0AC02 20-245; P0A937 20-113); assay: cell-based or functional assay
[2] = molecular target: T1, β-barrel assembly machinery (BAM) …; assay: MST; BAM in DDM micelles titrated (1.6 nM–52 μM) against 400 nM Alexa Fluor 488-labelled Cys-SurA variant; 0.02% (v/v) DDM, 150 mM NaCl, 20 mM Tris–HCl, pH 8, 25 °C; 1:1 quadratic binding model; details: both partners purified
[3] = molecular target: T1, β-barrel assembly machinery (BAM) …; assay: MST; BAM reconstituted in proteoliposomes of E. coli polar lipid extract titrated (25 µM–1 nM) against 400 nM Alexa Fluor 488-labelled SurA variant; TBS pH 8.0, 25 °C; 1:1 quadratic binding model; details: both partners purified

B1: Alexa Fluor 488-labelled Cys-SurA-WT (natural protein)
chain: GCAPQVVDKVAAVVNNGVVLESDVDGLMQSVKLNAAQARQQLPDDATLRHQIMERLIMDQIILQMGQKMGVKISDEQLDQAIANIAKQNNMTLDQMRSRLAYDGLNYNTYRNQIRKEMIISEVRNNEVRRRITILPQEVESLAQQVGNQNDASTELNLSHILIPLPENPTSDQVNEAESQARAIVDQARNGADFGKLAIAHSADQQALNGGQMGWGRIQELPGIFAQALSTAKKGDIVGPIRSGVGFHILKVNDLRGESKNISVTEVHARHILLKPSPIMTDEQARVKLEQIAADIKSGKTTFAAAAKEFSQDPGSANQGGDLGWATPDIFDPAFRDALTRLNKGQMSAPVHSSFGWHLIELLDTRNVDKTDAAQKDRAYRMLMNRKFSEEAASWMQEQRASAYVKILSN
modifications: Alexa Fluor 488 (C5 maleimide) on the added N-terminal cysteine
notes: glycine left after TEV cleavage (ENLYFQG) and the cysteine added immediately following the TEV cleavage site; the order G-C is worked out from the text; gene numbering including the signal peptide; not shown: His6, N-terminal, cleaved
Kd (BAM complex (BamABCDE)): 600 nM

B4: Alexa Fluor 488-labelled Cys-SurA-core (domain or fragment)
chain: CAPQVVDKVAAVVNNGVVLESDVDGLMQSVKLNAAQARQQLPDDATLRHQIMERLIMDQIILQMGQKMGVKISDEQLDQAIANIAKQNNMTLDQMRSRLAYDGLNYNTYRNQIRKEMIISEVRNNEVRRRITILPQEVESLAQQVGNQNDASDAAQKDRAYRMLMNRKFSEEAASWMQEQRASAYVKILSN
modifications: Alexa Fluor 488 on the added N-terminal cysteine (maleimide)
notes: cysteine residue added immediately following the TEV cleavage site; numbers are the gene numbering (including the signal peptide); A G of the TEV site probably precedes the added cysteine after cleavage (surmised); not shown: His6, N-terminal, cleaved
Kd [2]: 1300 ± 300 nM

B6: Alexa Fluor 488-labelled Cys-SurA-core (domain or fragment)
chain: GCAPQVVDKVAAVVNNGVVLESDVDGLMQSVKLNAAQARQQLPDDATLRHQIMERLIMDQIILQMGQKMGVKISDEQLDQAIANIAKQNNMTLDQMRSRLAYDGLNYNTYRNQIRKEMIISEVRNNEVRRRITILPQEVESLAQQVGNQNDASDAAQKDRAYRMLMNRKFSEEAASWMQEQRASAYVKILSN
modifications: Alexa Fluor 488 (C5 maleimide) on the added N-terminal cysteine
notes: as for B1
Kd (BAM complex (BamABCDE)): 700 nM

B7: Alexa Fluor 488-labelled Cys-SurA-∆P2 (domain or fragment)
chain: GCAPQVVDKVAAVVNNGVVLESDVDGLMQSVKLNAAQARQQLPDDATLRHQIMERLIMDQIILQMGQKMGVKISDEQLDQAIANIAKQNNMTLDQMRSRLAYDGLNYNTYRNQIRKEMIISEVRNNEVRRRITILPQEVESLAQQVGNQNDASTELNLSHILIPLPENPTSDQVNEAESQARAIVDQARNGADFGKLAIAHSADQQALNGGQMGWGRIQELPGIFAQALSTAKKGDIVGPIRSGVGFHILKVNDLRGESKNIDAAQKDRAYRMLMNRKFSEEAASWMQEQRASAYVKILSN
modifications: Alexa Fluor 488 (C5 maleimide) on the added N-terminal cysteine
notes: as for B1
Kd (BAM complex (BamABCDE)): 1200 nM

B8: Alexa Fluor 488-labelled Cys-SurA-∆P1 (domain or fragment)
chain: GCAPQVVDKVAAVVNNGVVLESDVDGLMQSVKLNAAQARQQLPDDATLRHQIMERLIMDQIILQMGQKMGVKISDEQLDQAIANIAKQNNMTLDQMRSRLAYDGLNYNTYRNQIRKEMIISEVRNNEVRRRITILPQEVESLAQQVGNQNDASSVTEVHARHILLKPSPIMTDEQARVKLEQIAADIKSGKTTFAAAAKEFSQDPGSANQGGDLGWATPDIFDPAFRDALTRLNKGQMSAPVHSSFGWHLIELLDTRNVDKTDAAQKDRAYRMLMNRKFSEEAASWMQEQRASAYVKILSN
modifications: Alexa Fluor 488 (C5 maleimide) on the added N-terminal cysteine
notes: as for B1
Kd (BAM complex (BamABCDE)): 600 nM

B10: Alexa Fluor 488-labelled Cys-SurA-WT (natural protein)
chain: CAPQVVDKVAAVVNNGVVLESDVDGLMQSVKLNAAQARQQLPDDATLRHQIMERLIMDQIILQMGQKMGVKISDEQLDQAIANIAKQNNMTLDQMRSRLAYDGLNYNTYRNQIRKEMIISEVRNNEVRRRITILPQEVESLAQQVGNQNDASTELNLSHILIPLPENPTSDQVNEAESQARAIVDQARNGADFGKLAIAHSADQQALNGGQMGWGRIQELPGIFAQALSTAKKGDIVGPIRSGVGFHILKVNDLRGESKNISVTEVHARHILLKPSPIMTDEQARVKLEQIAADIKSGKTTFAAAAKEFSQDPGSANQGGDLGWATPDIFDPAFRDALTRLNKGQMSAPVHSSFGWHLIELLDTRNVDKTDAAQKDRAYRMLMNRKFSEEAASWMQEQRASAYVKILSN
modifications: Alexa Fluor 488 on the added N-terminal cysteine (maleimide)
notes: cysteine residue added immediately following the TEV cleavage site; numbers are the gene numbering (including the signal peptide); A G of the TEV site probably precedes the added cysteine after cleavage (surmised); also called Alexa Fluor 488-labelled SurA; not shown: His6, N-terminal, cleaved
Kd [2]: 2600 ± 200 nM

Now from value to binder:

rate of BAM-catalysed folding of tOmpA into proteoliposomes (cold SDS–PAGE), with SurA-∆P2 against SurA-WT [1]: ~3 fold
B2: SurA-∆P2 (SurA 21-428 without residues 281-389, His-tag cleaved) (domain or fragment)
chain: APQVVDKVAAVVNNGVVLESDVDGLMQSVKLNAAQARQQLPDDATLRHQIMERLIMDQIILQMGQKMGVKISDEQLDQAIANIAKQNNMTLDQMRSRLAYDGLNYNTYRNQIRKEMIISEVRNNEVRRRITILPQEVESLAQQVGNQNDASTELNLSHILIPLPENPTSDQVNEAESQARAIVDQARNGADFGKLAIAHSADQQALNGGQMGWGRIQELPGIFAQALSTAKKGDIVGPIRSGVGFHILKVNDLRGESKNIDAAQKDRAYRMLMNRKFSEEAASWMQEQRASAYVKILSN

rate of BAM-mediated folding of tOmpA into proteoliposomes (cold SDS–PAGE), without SurA-WT against with 10 μM SurA-WT [1]: ~6 fold
B3: SurA-WT (wild-type SurA, residues 21-428, His-tag cleaved) (natural protein)
chain: APQVVDKVAAVVNNGVVLESDVDGLMQSVKLNAAQARQQLPDDATLRHQIMERLIMDQIILQMGQKMGVKISDEQLDQAIANIAKQNNMTLDQMRSRLAYDGLNYNTYRNQIRKEMIISEVRNNEVRRRITILPQEVESLAQQVGNQNDASTELNLSHILIPLPENPTSDQVNEAESQARAIVDQARNGADFGKLAIAHSADQQALNGGQMGWGRIQELPGIFAQALSTAKKGDIVGPIRSGVGFHILKVNDLRGESKNISVTEVHARHILLKPSPIMTDEQARVKLEQIAADIKSGKTTFAAAAKEFSQDPGSANQGGDLGWATPDIFDPAFRDALTRLNKGQMSAPVHSSFGWHLIELLDTRNVDKTDAAQKDRAYRMLMNRKFSEEAASWMQEQRASAYVKILSN

binding result [3]: binds
B5: Alexa Fluor 488-labelled Cys-SurA-∆P2 (domain or fragment)
chain: CAPQVVDKVAAVVNNGVVLESDVDGLMQSVKLNAAQARQQLPDDATLRHQIMERLIMDQIILQMGQKMGVKISDEQLDQAIANIAKQNNMTLDQMRSRLAYDGLNYNTYRNQIRKEMIISEVRNNEVRRRITILPQEVESLAQQVGNQNDASTELNLSHILIPLPENPTSDQVNEAESQARAIVDQARNGADFGKLAIAHSADQQALNGGQMGWGRIQELPGIFAQALSTAKKGDIVGPIRSGVGFHILKVNDLRGESKNIDAAQKDRAYRMLMNRKFSEEAASWMQEQRASAYVKILSN
modifications: Alexa Fluor 488 on the added N-terminal cysteine (maleimide)
notes: as for B4

binding result [3]: binds
B9: Alexa Fluor 488-labelled Cys-SurA-∆P1 (domain or fragment)
chain: CAPQVVDKVAAVVNNGVVLESDVDGLMQSVKLNAAQARQQLPDDATLRHQIMERLIMDQIILQMGQKMGVKISDEQLDQAIANIAKQNNMTLDQMRSRLAYDGLNYNTYRNQIRKEMIISEVRNNEVRRRITILPQEVESLAQQVGNQNDASSVTEVHARHILLKPSPIMTDEQARVKLEQIAADIKSGKTTFAAAAKEFSQDPGSANQGGDLGWATPDIFDPAFRDALTRLNKGQMSAPVHSSFGWHLIELLDTRNVDKTDAAQKDRAYRMLMNRKFSEEAASWMQEQRASAYVKILSN
modifications: Alexa Fluor 488 on the added N-terminal cysteine (maleimide)
notes: cysteine residue added immediately following the TEV cleavage site; numbers are the gene numbering (including the signal peptide); A G of the TEV site probably precedes the added cysteine after cleavage (surmised); also called SurA-ΔP1; not shown: His6, N-terminal, cleaved
